The target of experiment [1] is SARS-CoV-2 Spike (). The experiment is described as follows: BLI.
Experiment [2] addresses SARS-CoV-2 Spike RBD (tagless) (UniProt P0DTC2 319-541). The experiment in a line: BLI.

This note sets out measurements from patent US20220251174A1 (published 2022).

B1: 22-E7 (full-length human IgG1) (antibody, V domains shown)
VH: QVQLVESGGGVVQPGTSLRLSCAASGFTFNNYPMFWVRQAPGKGLEWLALISYDGNHKVYADSVKGRFTISRDNAKNTLYLQMHSLRAEDTALYYCASDLSGAEDSWGQGTLVTVSS
VL: QSALTQPASVSGSPGQSITISCTGTSSDVGGYNYVSWYQQHPGKAPKLLIYEVSNRPSGVSNRFSGSKSGNTASLTISGLQAEDEADYYCSSYTSSSTWVFGGGTKLTVL
In general, Kd refers to the constant that tells how readily two partners part at equilibrium. A lower Kd goes with tighter binding. Consider B1, for which binding in experiment [1] was characterised by a dissociation constant (Kd) of 248 nM. This lies in the sub-micromolar range.

B2: 23-H7 Fab (Fab, V domains shown)
VH: QVQLVQSGAEVKLPGASMKVSCKASGYTFSTYYMHWVRQAPGQGPEWMGVIDPSGGTTSYAQKFHDRIAMTRDTSTSTAYLELSSLRSEDMAVYYCARGGFADAVDYWGQGTLVTVSS
VL: NFMLTQPHSVSGSPGKTVTISCTRNSGSIAGNYVQWYQQRPGSAPTTVIYEDNQRPSGVPDRFSGSIDSSSNSASLTISGLKTEDEADYYCQSYDASHLHVIFGGGTKVTVL
One may read the IC50 as the concentration that gives 50% inhibition. A low value points to greater potency. With B2, the half-inhibitory concentration (IC50) in experiment [2] turned out to be 4.6 nM.
